# B1: RABV SAD-B19 full-length P (PFL) with C-terminal StrepII tag (natural protein)
# chain: MSKIFVNPSAIRAGLADLEMAEETVDLINRNIEDNQAHLQGEPIEVDNLPEDMGRLHLDDGKSPNHGEIAKVGEGKYREDFQMDEGEDPSFLFQSYLENVGVQIVRQMRSGERFLKIWSQTVEEIISYVAVNFPNPPGKSSEDKSTQTTGRELKKETTPTPSQRESQSSKARMAAQIASGPPALEWSATNEEDDLSVEAEIAHQIAESFSKKYKFPSRSSGILLYNFEQLKMNLDDIVKEAKNVPGVTRLAHDGSKLPLRCVLGWVALANSKKFQLLVESDKLSKIMQDDLNRYTSC
# Legend:
# [1] = target: RABV SAD-B19 large polymerase protein (L), 6xHis-tagged (rabies virus (RABV) SAD-B19, UniProt P16289 1-2127); test: negative-stain electron microscopy
# [2] = target: the molecule itself; test: negative-stain electron microscopy
# Chain of RABV SAD-B19 large polymerase protein (L), 6xHis-tagged (P16289 whole entry): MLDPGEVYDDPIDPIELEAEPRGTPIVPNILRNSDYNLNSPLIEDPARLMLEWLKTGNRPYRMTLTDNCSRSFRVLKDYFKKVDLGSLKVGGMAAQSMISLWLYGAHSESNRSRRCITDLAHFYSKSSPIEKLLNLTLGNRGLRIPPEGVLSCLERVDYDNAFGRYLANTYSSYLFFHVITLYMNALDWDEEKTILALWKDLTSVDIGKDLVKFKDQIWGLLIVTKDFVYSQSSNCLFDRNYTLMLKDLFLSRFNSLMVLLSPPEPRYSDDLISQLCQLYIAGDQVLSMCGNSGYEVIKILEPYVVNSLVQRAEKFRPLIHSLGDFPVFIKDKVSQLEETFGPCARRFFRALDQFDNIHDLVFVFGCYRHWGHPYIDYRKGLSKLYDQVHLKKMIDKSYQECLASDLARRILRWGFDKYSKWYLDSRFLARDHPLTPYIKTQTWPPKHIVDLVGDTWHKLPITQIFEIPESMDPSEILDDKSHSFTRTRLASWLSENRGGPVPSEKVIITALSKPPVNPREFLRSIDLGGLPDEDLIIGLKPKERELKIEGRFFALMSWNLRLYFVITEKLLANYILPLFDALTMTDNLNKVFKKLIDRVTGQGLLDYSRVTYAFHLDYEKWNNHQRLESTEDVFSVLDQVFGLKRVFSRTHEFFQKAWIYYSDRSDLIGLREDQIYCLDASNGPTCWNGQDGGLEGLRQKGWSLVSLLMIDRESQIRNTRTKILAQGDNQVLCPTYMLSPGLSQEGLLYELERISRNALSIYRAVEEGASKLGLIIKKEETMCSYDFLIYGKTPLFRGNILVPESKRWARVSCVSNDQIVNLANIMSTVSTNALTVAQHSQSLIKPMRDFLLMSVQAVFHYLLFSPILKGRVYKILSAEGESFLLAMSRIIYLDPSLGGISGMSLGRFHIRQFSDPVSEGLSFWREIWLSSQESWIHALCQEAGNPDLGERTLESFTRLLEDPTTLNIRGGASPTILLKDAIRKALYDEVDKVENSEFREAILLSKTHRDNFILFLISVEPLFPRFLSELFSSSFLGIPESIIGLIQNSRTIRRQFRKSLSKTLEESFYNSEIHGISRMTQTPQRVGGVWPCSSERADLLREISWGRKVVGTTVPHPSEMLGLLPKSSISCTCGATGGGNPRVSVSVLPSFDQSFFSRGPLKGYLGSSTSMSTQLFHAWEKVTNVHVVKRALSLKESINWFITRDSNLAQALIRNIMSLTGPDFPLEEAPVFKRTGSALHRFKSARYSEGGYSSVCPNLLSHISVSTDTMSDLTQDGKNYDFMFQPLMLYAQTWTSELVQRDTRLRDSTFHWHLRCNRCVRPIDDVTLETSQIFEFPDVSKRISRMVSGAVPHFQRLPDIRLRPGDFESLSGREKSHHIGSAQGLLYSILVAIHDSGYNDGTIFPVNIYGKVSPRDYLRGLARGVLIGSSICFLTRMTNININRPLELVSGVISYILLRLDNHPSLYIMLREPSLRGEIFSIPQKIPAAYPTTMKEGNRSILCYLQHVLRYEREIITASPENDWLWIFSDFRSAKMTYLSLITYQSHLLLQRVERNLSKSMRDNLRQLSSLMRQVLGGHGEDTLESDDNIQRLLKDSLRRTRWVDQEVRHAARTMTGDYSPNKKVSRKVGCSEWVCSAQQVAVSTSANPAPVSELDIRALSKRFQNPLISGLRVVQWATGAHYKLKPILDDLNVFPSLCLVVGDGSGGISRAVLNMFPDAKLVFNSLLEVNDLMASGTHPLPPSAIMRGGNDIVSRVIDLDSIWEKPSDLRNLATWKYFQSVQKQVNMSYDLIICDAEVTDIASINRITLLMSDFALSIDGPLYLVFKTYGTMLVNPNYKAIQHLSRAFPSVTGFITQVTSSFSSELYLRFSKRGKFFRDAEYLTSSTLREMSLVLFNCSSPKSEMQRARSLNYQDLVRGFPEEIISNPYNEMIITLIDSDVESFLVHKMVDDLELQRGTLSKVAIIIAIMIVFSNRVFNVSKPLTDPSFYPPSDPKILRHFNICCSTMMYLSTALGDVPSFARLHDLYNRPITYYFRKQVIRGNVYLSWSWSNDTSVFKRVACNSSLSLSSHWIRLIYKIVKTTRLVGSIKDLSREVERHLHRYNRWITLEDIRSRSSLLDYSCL
binder,measurement,setting,value
B1,binding result,[1],binds
same,stoichiometry N,[2],2

# From article PMC6995008 (Proceedings of the National Academy of Sciences of the …, 2020)
